From patent publication US20230203146A1 (Boehringer Ingelheim, published 2023)

B1: VHH 55D06 (VHH)
VHH: EVQLVESGGGLVQAGGSLRLSCAASGLTLDDYAIGWFRQAPGKEREGVSSIRDNDGSTYYADSVKGRFTISSDNDKNTVYLQMNSLKPEDTAVYYCAAVPAGRLRFGEQWYPIYEYDAWGQGTLVTVSS
notes: periplasmic extract; not shown: C-terminal c-myc tag and His6 tag
B2: VHH 64C07 (VHH)
VHH: EVHLVESGGGLVQAGGSLRLSCAASGLTLDDYAIGWFRQAPGVEREGVSSIRDNDGSTYYADSVKGRFTISSDNDKNTVYLQMNSLKPEDTAVYYCAAVPAGRLRFGEQWYPIYEYDAWGQGTLVTVSS
notes: as for B1
B3: VHH 64E12 (VHH)
VHH: EVQLVESGGGLVQAGGSLRLSCAVSGFTLDDYAIGWFRQAPGKEREGVSSIRDNDGSTYYADSVKGRSTISSDNDKNTVYLQMNSLKPEDTAVYYCAAVPAGRLRFGEQWYPIYEYDAWGQGTLVTVSS
notes: as for B1
B4: VHH 64C03 (VHH)
VHH: EVQLVESGGGLVQAGGSLRLSCAASGFTLDDYAIGWFRQAPGKEREGVSSIRDNDGSTYYADSVKGRFTISSDNDKNTVYLQMNSLKPEDTAVYYCAAVPAGRLRYGEQWYPIYEYDAWGQGTLVTVSS
notes: as for B1
B5: VHH 64G02 (VHH)
VHH: EVQLVESGGGLVQAGGSLRLSCAISGFTLVDYAIGWFRQAPGKEREGVSSIRDNDGSTYYADSVKGRFIISSDNDKNTVYLQMNSLKPEDTAVYYCAAVPAGRLRFGEQWYPIYEYDAWGQGTLVTVSS
notes: as for B1
B6: VHH 64G01 (VHH)
VHH: EVQLVESGGGLVQAGGSLRLSCAASGFTLDDYAIGWFRQAPGKEREGVSSIRDNDGSTYYADSVKGRFIISSDNDKNTVYLQMNNLKPEDTAVYYCAAVPAGRLRYGEQWYPIYEYDAWGQGTLVTVSS
notes: as for B1
B7: VHH 64G12 (VHH)
VHH: EVQLVESGGGLVQAGGSLRLSCAVSGFTLDDYAIGWFRQAPGKEREGVSSIRENDGSTYYADSVQGRFTISSDNDKNTVYLRMNSLKPEDTAVYYCAAVPAGRLRFGEQWYPIYEYDAWGQGTLVTVSS
notes: as for B1
B8: VHH 60C09 (VHH)
VHH: EVQLVESGGGLVQAGGSLRLSCAVSGITLDDYAIGWFRQAPGKEREGVSSIRDNDGSTYYADSVKWRFTISSDNDKNTVYLQMNSMKPEDTAVYYCAAVPAGRLRFGEQWYPIYEYDAWGQGILVTVSS
notes: as for B1
B9: VHH 64F07 (VHH)
VHH: QVQLVESGGGLVQAGGSLRLSCAVSGFTLDDYAIGWFRQAPGKEREGVSSIRDNDGSTYYADSVKGRFTISSDNDQNTVYLQMNSLKSEDTAVYYCAAVPAGRLRFGEQWYPIYEYDAWGQGTLVTVSS
notes: as for B1
B10: VHH 56A07 (VHH)
VHH: EVQLVESGGGLVQAGGSLRLSCAASGFTLDDYAIGWFRQAPGKEREGVSSIRDNDGSTYYADSVKGRSTISSDNARNTVFLQMNSLKPEDTAVYYCAAVPAGRLRFGEQWYPIYEYDAWGQGTLVTVSS
notes: as for B1
B11: VHH 64G03 (VHH)
VHH: EVQLVESGGGLVQAGGSLRLSCAASGFTLDDYAIGWFRQAPGKEREGVSSIRDNDGSTYYADSVKGRSTISSDNDKNTVYLQMDSLKPEDTAVYYCAAVPAGRLRYGEQWYPIYEYDAWGQGTLVTVSS
notes: as for B1
B12: VHH 58D10 (VHH)
VHH: EELLVESGGGSVQAGGSLKLSCAASGLTLDDYAIGWFRQAPGKEREGVSSIRDNDGSTYYADSVKGRFTISSDNDKNTVYLQMNSLKPEDTAVYYCAAVPAGRLRFGEQWYPIYEYDAWGQGTLVTVSS
notes: as for B1
B13: VHH 64D11 (VHH)
VHH: EVQLVESGGGQAQAGGSLRLSCAVSGFTLDDYAIGWFRQAPGKEREGVSSIRDNDGSTYYTDSVKGRFTISSDNDKNTVYLQMNSLKPEDTAVYYCAAVPAGRLRFGEQWYPIYEYDAWGQGTLVTVSS
notes: as for B1
B14: VHH 55F02 (VHH)
VHH: EVQLVESGGGLVQSGGSLRLSCAASGLTLDDYAIGWFRQAPGKEREGVSSIRDNDGSTYYADSVKGRFTISSDNDKNTVYLQMNSLKPEDTAVYYCAAVPAGRLRFGEQWYPIYEYDAWGQGTLVTVSS
notes: as for B1
B15: VHH 64A03 (VHH)
VHH: EVQLLESGGGLVQAGGSLRLSCAASGFTLDDYAIGWFRQAPGKEREGVSSIRDNDGSTYYADSVKGRFTISSDNDKNTVYLQMNSLKPEDTAVYYCAAVPAGRLRIGEQWYPIYEYDAWGQGTLVTVSS
notes: as for B1
B16: VHH 64B02 (VHH)
VHH: EVQLVESGGGLVQAGGFLRLTCAVSGFTLDDYAIGWFRQAPGKEREGVSSIRDNDGSTYYADSVKGRFTISSDNVKNTVYLQMNSLKPEDTAVYYCAAVPAGRLRFGEQWYPIYEYDAWGQGTLVTVSS
notes: as for B1
B17: VHH 55A06 (VHH)
VHH: EVQLMESGGGLVQAGGSLRLSCAASGITLDDYAIGWFRQAPGKEREGVSSIRDNDGSTYYADSVKGRFTISSDNDKNTVNLQMNSLKPEDTAVYYCAAVPAGRLRFGEQWYPIYEYDAWGQGTLVTVSS
notes: as for B1
B18: VHH 65F01 (VHH)
VHH: EVQLVESGGGLVQAGGSLRLSCAASGLTLDDYAIGWFRQAPGKEREGVSSIRDNDGSRYYADSVKGRFTISSDNDKNTVYLQMNSLKPEDTAVYYCAAVPAGRLRFGEQWYPIYEYDAWGQGTLVTVSS
notes: as for B1
B19: VHH 55G03 (VHH)
VHH: EVQLVESGGSLVQAGGSLRLSCAASGLTLDDYAIGWFRQAPGKEREGVSSIRDNDGSTYYADSVKGRFTISSDNDKNTVYLQMNSLKPEDTAVYYCAAVPAGRLRFGEQWYPIYEYDAWGQGTLVTVSS
notes: as for B1
B20: VHH 53A06 (VHH)
VHH: EVQLVESGGSLVQAGGSLRLSCAASGLTLDDYAIGWFRQAPGKEREGVSSIRDNDGSTYYADSVKGRFTISSDNDKNTVYLQMNSLKPEDTAVYYCAAVPAGRLRFGEQWYPIYEYDAWGQGTLVTVSS
notes: as for B1
B21: VHH 64G11 (VHH)
VHH: EVQLVESGGGLVQAGGSLRLSCAASGITLDDYAIGWFRQAPGKERVGVSSIRDNDGSTYYADSVKGRFTISSDNDKNTVYLQMNSLKPEDTAVYYCAAVPAGRLRFGEQWYPIYEYDAWGQGTLVTVSS
notes: as for B1
B22: VHH 60A06 (VHH)
VHH: EVQLVESGGGLVQAGGSLRLSCAASGFTLDDYAIGWFRQAPGKDREGVSSIRDNDGSTYYADSVKGRFTISSDNDKNTVYLQMNSLKPEDTAVYYCAAVPAGRLRYGEQWYPIYEYDAWGQGTVVTVSS
notes: as for B1
B23: VHH 64F03 (VHH)
VHH: EVQLVESGGGLVQAGGSLRLSCAVSGITLDDYAVGWFRQAPGKEREGVSTIRDNDGSTYYADSVKGRFTISSDNDKNTVYLQMNSLKPKDTAVYYCAAVPAGRLRFGEQWYPIYEYDAWGQGTLVTVSS
notes: as for B1
B24: VHH 64B01 (VHH)
VHH: EVQLVESGGGLVQAGGTLRLSCAVSGFTLDDYAIGWFRQAPGKEREGVSSIRDNDGSTYYADSVKGRFTISSDNDKNTVYLQMNSLKPEDTAVYYCAAVPAGRLRFGEQWYPIYEYDAWGQGILVTVSS
notes: as for B1
B25: VHH 65F03 (VHH)
VHH: EVQMVESGGGLVQAGGSLRLSCAASGLTLDDYAIGWFRQAPGKEREGVSSIRDNDGSTYYADSVKGRFTISSDNDKNTVYLQMNGLKPEDTAVYYCAAVPAGRLRFGEQWYPIYEYDAWGQGTLVTVSS
notes: as for B1

Target: T1, recombinant human Ang2-FLD (human, UniProt O15123 275-496, limits assumed)
T1 construct: domain: FLD; not used
T1 sequence (looked up): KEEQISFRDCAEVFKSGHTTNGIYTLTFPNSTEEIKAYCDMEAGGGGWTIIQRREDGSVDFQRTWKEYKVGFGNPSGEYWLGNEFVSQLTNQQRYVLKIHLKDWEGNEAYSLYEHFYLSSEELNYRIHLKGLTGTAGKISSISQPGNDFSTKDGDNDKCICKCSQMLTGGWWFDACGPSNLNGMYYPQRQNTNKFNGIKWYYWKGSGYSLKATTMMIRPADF
Assay: ProteOn off-rate assay, periplasmic extract 1:10 over coated human Ang2-FLD
Procedure: In a first cycle, amino acid substitutions are introduced randomly in both framework (FW) and complementary determining regions (CDR) using the error-prone PCR method. […] After a polish step, PCR products are inserted via unique restriction sites into a vector designed to facilitate phage display of the VHH library. […] Periplasmic extract of affinity matured clones is diluted 1:10 and injected across the “analyte channels” A1-A6.

Binder | fold improvement (off-rate against VHH 00027) | koff
B1 | 9.4 fold | 0.00012 s⁻¹
B2 | 8.3 fold | 0.00014 s⁻¹
B3 | 8.7 fold | 0.00013 s⁻¹
B4 | 9.2 fold | 0.00013 s⁻¹
B5 | 9.4 fold | 0.00012 s⁻¹
B6 | 8.2 fold | 0.00014 s⁻¹
B7 | 8.9 fold | 0.00013 s⁻¹
B8 | 8.5 fold | 0.00016 s⁻¹
B9 | 9.4 fold | 0.00012 s⁻¹
B10 | 8.1 fold | 0.00015 s⁻¹
B11 | 15.7 fold | 7.4e-05 s⁻¹
B12 | 8.1 fold | 0.00013 s⁻¹
B13 | 10.3 fold | 0.00011 s⁻¹
B14 | 8.7 fold | 0.00014 s⁻¹
B15 | 8.3 fold | 0.00014 s⁻¹
B16 | 8.5 fold | 0.00014 s⁻¹
B17 | 9.2 fold | 0.00013 s⁻¹
B18 | 8.1 fold | 0.00016 s⁻¹
B19 | 8 fold | 0.00015 s⁻¹
B20 | 8 fold | 0.00016 s⁻¹
B21 | 9.6 fold | 0.00012 s⁻¹
B22 | 8.3 fold | 0.00016 s⁻¹
B23 | 10.8 fold | 0.00011 s⁻¹
B24 | 8.2 fold | 0.00014 s⁻¹
B25 | 8.9 fold | 0.00014 s⁻¹
